Data on one substance can be found in paper PMC3383726.

The target of the assay is chimera of the human sst5 receptor with the carboxyl-terminal tail of the human sst2 receptor (hsst5-sst2CT) (human). Description: radioligand binding; competition against 0.05 nM [125I-Tyr11]-SS-14 on membrane preparations (30 µg protein) of stably transfected HEK293 cells; competitor 10^-12 to 10^-6 M; 10 mM HEPES, 5 mM MgCl2, 5 µg/ml bacitracin, pH 7.5; 45 min, room temperature; vacuum filtration.

Regarding “Somatostatin (SS-14) (from UniProt P61278 103-116) (peptide)”, the IC50 was 30.3 nM.

As a reminder, the IC50 is the concentration that gives 50% inhibition.
